Legend:
[1] = molecular target: retinoblastoma tumor suppressor protein RB1 (endogenous, HCT116) (UniProt P06400); assay: immunoprecipitation/Western blot (anti-Flag IP of E7, RB1 immunoblot); conditions: parent: 1
endogenous murine Rb1 = endogenous murine Rb1 (UniProt P13405); assay: immunoprecipitation/Western blot (anti-HA IP of E7, Rb1 immunoblot); conditions: NIH 3T3 cells, transient expression; parent: 1
[2] = HCT116 cells, transient expression

Chain of UniProt P06400 (P06400 whole entry): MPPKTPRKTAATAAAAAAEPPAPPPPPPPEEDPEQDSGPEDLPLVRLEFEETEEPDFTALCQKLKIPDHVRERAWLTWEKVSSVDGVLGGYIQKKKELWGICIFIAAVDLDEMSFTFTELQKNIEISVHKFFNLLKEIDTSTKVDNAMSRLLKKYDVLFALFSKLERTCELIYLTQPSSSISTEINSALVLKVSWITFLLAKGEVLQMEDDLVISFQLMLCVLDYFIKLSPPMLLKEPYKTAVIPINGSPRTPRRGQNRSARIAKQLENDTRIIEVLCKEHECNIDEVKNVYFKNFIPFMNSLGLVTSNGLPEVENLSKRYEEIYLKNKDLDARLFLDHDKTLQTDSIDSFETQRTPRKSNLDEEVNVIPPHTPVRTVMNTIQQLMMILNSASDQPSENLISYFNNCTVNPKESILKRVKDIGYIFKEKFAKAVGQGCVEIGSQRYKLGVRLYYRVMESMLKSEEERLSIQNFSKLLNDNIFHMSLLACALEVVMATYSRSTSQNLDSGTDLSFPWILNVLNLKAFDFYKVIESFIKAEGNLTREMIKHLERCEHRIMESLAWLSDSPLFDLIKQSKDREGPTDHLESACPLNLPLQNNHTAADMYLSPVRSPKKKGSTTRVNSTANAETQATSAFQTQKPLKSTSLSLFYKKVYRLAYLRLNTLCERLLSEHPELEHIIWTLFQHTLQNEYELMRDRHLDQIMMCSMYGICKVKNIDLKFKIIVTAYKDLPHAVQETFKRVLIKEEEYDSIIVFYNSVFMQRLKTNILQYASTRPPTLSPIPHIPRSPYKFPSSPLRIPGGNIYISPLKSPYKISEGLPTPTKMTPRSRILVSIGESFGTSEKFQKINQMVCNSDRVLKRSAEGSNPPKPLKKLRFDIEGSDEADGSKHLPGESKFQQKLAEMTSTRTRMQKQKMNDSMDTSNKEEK
Chain of UniProt P13405 (P13405 whole entry): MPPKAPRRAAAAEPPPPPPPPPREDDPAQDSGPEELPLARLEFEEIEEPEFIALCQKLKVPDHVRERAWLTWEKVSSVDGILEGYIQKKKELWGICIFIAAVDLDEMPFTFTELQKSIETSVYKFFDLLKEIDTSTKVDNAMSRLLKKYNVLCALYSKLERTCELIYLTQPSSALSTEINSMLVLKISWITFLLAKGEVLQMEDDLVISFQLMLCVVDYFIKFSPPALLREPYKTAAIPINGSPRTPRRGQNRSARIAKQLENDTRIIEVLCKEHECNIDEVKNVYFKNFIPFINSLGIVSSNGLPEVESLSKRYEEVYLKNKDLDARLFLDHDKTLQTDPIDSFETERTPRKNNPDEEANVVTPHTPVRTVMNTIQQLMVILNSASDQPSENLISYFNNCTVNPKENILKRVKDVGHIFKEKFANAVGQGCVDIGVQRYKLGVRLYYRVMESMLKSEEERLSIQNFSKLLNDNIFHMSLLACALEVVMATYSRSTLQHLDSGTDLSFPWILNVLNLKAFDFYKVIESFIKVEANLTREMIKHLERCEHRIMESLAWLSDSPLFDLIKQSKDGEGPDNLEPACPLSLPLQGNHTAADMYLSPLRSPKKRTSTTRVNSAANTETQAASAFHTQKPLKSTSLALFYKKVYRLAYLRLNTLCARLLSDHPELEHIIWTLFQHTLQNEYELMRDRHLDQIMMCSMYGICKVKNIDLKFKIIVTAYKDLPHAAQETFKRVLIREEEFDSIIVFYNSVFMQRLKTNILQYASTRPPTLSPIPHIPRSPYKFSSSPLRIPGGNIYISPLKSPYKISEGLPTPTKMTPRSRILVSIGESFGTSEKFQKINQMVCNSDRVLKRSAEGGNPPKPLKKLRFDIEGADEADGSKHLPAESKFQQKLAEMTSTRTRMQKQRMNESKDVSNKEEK

Substance: N-terminally FLAG/HA epitope-tagged MmuPV1 E7 D90A
- ratio to parent [1, 2]: 0.01
- ratio to parent [1]: 0.05
- ratio to parent (endogenous murine Rb1): 0.02

Substance: N-terminally FLAG/HA epitope-tagged MmuPV1 E7 D90N
- ratio to parent [1]: 0.27

Substance: N-terminally FLAG/HA epitope-tagged MmuPV1 E7 D90T
- ratio to parent [1]: 0.07

Substance: N-terminally FLAG/HA epitope-tagged MmuPV1 E7 E84R; S85R
- ratio to parent [1, 2]: 0.65

Substance: N-terminally FLAG/HA epitope-tagged MmuPV1 E7 R57D
- ratio to parent [1, 2]: 0.64
